Patent US9410182B2, “Phosphatase coupled glycosyltransferase assay” (Bio-Techne Corporation, priority 2010, dated 2016)

Substrate: N[C@H]1C(O)O[C@H](CO)[C@@H](O[C@@H]2O[C@H](CO)[C@H](O)[C@H](O)[C@H]2O)[C@@H]1O
Experiment: Sialyltransferase activity of ST6Gal 1 assayed with CD73
Format: biochemical, human
Settings: other: acceptor varied, CMP-NeuAc fixed at 0.2 mM; pH 7.5
Description: The GDP-Fucose, UDP-Glucose, CMP-NeuAc, CMP, UDP and GDP used in the following experiments were obtained from Sigma-Aldrich (St Louis, Mo.). The recombinant human Fut7, ST6Gal1, CD73, CD39L3, non-specific alkaline phosphatase TNAP, recombinant Clostridium Difficile toxin B (TcdB) containing the glycosyltransferase domain and Malachite Green Phosphate Detection Kit were obtained from R&D Systems (Minneapolis, Minn.). The 3′-Sialyl-N-acetyllactosamine was obtained from V-LABS, Inc (Convington, La.). Unless otherwise specified, each glycosyltransferase reaction was performed in 50 μL of a buffer of 25 mM Tris, 150 mM NaCl, 5 mM MgCl2 and 5 mM MnCl2, at pH 7.5 in a 96-well plate at room temperature for 20 minutes. […] The plate was then read at 620 nm with a multi-well plate reader.
Sialic acid is negatively charged under normal pH conditions, making sialyltransferases more difficult to assay than other glycosyltransferases. […] The results are shown in FIG. 7, and the specific activities against lactosamine and lactose were determined to be 458 and 41 pmol/min/μg respectively, confirming that the enzyme strongly favors lactosamine structure. The apparent Km and Vmax were determined for one substrate while fixing the other by fitting the data to KaleidaGraph 4 program.

B1: ST6Gal 1 (Homo sapiens) (protein)
chain: MIHTNLKKKFSCCVLVFLLFAVICVWKEKKKGSYYDSFKLQTKEFQVLKSLGKLAMGSDSQSVSSSSTQDPHRGRQTLGSLRGLAKAKPEASFQVWNKDSSSKNLIPRLQKIWKNYLSMNKYKVSYKGPGPGIKFSAEALRCHLRDHVNVSMVEVTDFPFNTSEWEGYLPKESIRTKAGPWGRCAVVSSAGSLKSSQLGREIDDHDAVLRFNGAPTANFQQDVGTKTTIRLMNSQLVTTEKRFLKDSLYNEGILIVWDPSVYHSDIPKWYQNPDYNFFNNYKTYRKLHPNQPFYILKPQMPWELWDILQEISPEEIQPNPPSSGMLGIIIMMTLCDQVDIYEFLPSKRKTDVCYYYQKFFDSACTMGAYHPLLYEKNLVKHLNQGTDEDIYLLGKATLPGFRTIHC
notes: purchased R&D Systems
- Km: 1800 ± 400 µM
- Vmax: 496 ± 38 pmol/min/µg
